Assay: soluble on expression in E. coli; label from the status in PepcDB or PDB records

Sequence	soluble on expression in E. coli
TGAQTKLTQTGAITTVNVDHLKANPSSSIVNTLAGNVAGVLAMQTSGQPGKNVSEFWIRGISTFGASTSAYVLVDGFERSMDEINIEDIESFSVLKDASATAIYGSKGANGVVLITTKHGKAG	not soluble
TGIEQLEFQRESSVSTTLQGVCEPILAILVQGKKEALLCDETYRYSAAQYLVVSVDLPLSAFIVEATPEKPYLGFKLNLDPRQLCDIITAQTNVIEEKKNSVRGLFVSTIDAPLLDCAMRLTRLLDTPQDIPILAPMIIREIYYRLLMGEQGEAV	not soluble
TGSIGSAARKILLAKTDVQLTLYSRRADRLKLIVDRETAVAGSVTDDDQLDQAIKGQDFVFVALNGDMDSFAAHIISAMERNGIQRLIFITTMGIYQEIPAWLGDSPEPYHNPILKSFRQAADRIEQSDLNYTIIRPGWYNN	not soluble
TIPISDKITLYIGRNSANNEKLTFGFAKPDDLWLHARGASGSHCVLKGATMRHTSEIQRAAEIAAWHSSAKHSELVPVICTQKKYLKK	not soluble
TIVYDKDGDKAGELSSTDATFVSIDKISKNLQNAVVSIEDRRFYEHKGFDLKGIARAGVNLITNGGISGGGSTITQQLAKNALLTQEQTFTRKAKEIFMAREIEKTYSKDEIMEMYLNRSYFGNGEWGVENASLKYFGKPAADLNIPEAATIAGLLQAPSAYDPYQHI	not soluble
TKTTTQGAKSGVFDTVDEAVQAAVIAQNCYKEKSLEERRNVVKAIREALYPEIETIATRAVAETGMGNVTDKILKNTLAIEKTPGVEDLYTEVATGDNGMTLYELSPYGVIGAVAPSTNPTETLICNSIGMLAAGNAVFYSPHPGAKNISLWLIEKLNTIVRDSCGIDNLIVTVAKPSIQAAQEMMNHPKVPLLVITGGPGVVLQAMQSGKKVIGAGAGNPPSIVDETANIEKAAADIVDGASFDHNILCIAE	not soluble
TLDPNAQQTAYEQLSQSGYEGAVVALRPSTGEVLAMASSPSYDPNQIVDPATAEDAWAEYTSTEGAPLLNHATQESLPPGSIFKIITTAAALENGYSADSTVTAEAAVTLPGTNTTLTNYGGQTCAGGGTTTLLTAFQLSCNTAFVETGIDVGADALRASAEDFGVGQTYSLGLDNVPGGLGEIPDDAALGQSSIGQRDVQMNVLQAAVMAGTVSNGGVRMEPYLVSRVTGQDLSELSTHKPKSVGGVEPEIAEQLKTLMEASERNTSGYTGIQIASKTGTAEHGDENTPPHTWYVAFNNDIAVAVLVKDGGGFGTSATGGQVAAPIGRAVLQAAGGF	not soluble
TLIFDREEKEAGALSGQKGTYVELTDISKNLQNAVIATEDRSFYKNDGINYGRFFLAIVTAGRSGGGSTITQQLAKNAYLSQDQTVERKAKEFFLALELSKKYSKEQILTMYLNNAYFGNGVWGVEDASKKYFGVSASEVSLDQAATLAGMLKGPELYNPLNSV	not soluble
TLIHIYDTSEPELDVQVTGYQWKWQYKYLGQDVEYFSNLATPQDQIHNRQAKDEHYLLEVDEPLVLPVGTKVRFLITSSDVIHSWWVPAFAVKRDAIPGFVNEAWTKVDEPGIYRGQCAELCGKDHGFMPIVVDVKPKAEFDQWLAKRKEEAAKVKELTSKEWTKEELVARGDKVYHTICAACHQAEGQGMPPMFPALKGSKIVTGPKEHHLEVVFNGVPGTAMAAFGKQLNEVDLAAVITYERNAWGNDDGDMVTPKDVVAYKQK	not soluble
TLVRVKKSAATLGIAIEGGANTRQPLPRIVTIQRGGSAHNCGQLKVGHVILEVNGLTLRGKEHREAARIIAEAFKTKDRDYIDFLVTEFN	soluble
TMITNSRGSVDLQPSLTGVFPSGLIETKVSAAKITENYQFDSRIRLNSIGFIPNHSKKATIAANCSTFYVVKEDGTIVYTGTATSMFDNDTKETVYIADFSSVNEEGTYYLAVPGVGKSVNFKIAMNVYEDAFKTAMLGMYLLRCGTSVSATYNGIHYSHGPCHTNDAYLDYINGQHTKKDSTKGWHDAGDYNKYVVNAGITVGSMFLAWEHFKDQLEPVALEIPEKNNSIPDFLDELKYEIDWILTMQYPDGSGRVAHKVSTRNFGGFIMPENEHDERFFVPWSSAATADFVAMTAMAARIFRPYDPQYAEKCINAAKVSYEFLKNNPANVFANQSGFSTGEYATVSDADDRLWAAAEMWETLGDEEYLRDFENRAAQFSKKIEADFDWDNVANLGMFTYLLSERPGKNPALVQSIKDSLLSTADSIVRTSQNHGYGRTLGTTYYWGCNGTVVRQTMILQVANKISPNNDYVNAALDAISHVFGRNYYNRSYVTGLGINPPMNPHDRRSGADGIWEPWPGYLVGGGWPGPKDWVDIQDSYQTNEIAINWNAALIYALAGFVNYNSPQNEVLYGDVNDDGKVNSTDLTLLKRYVLKAVSTLPSSKAEKNADVNRDGRVNSSDVTILSRYLIRVIEKLPI	soluble
TMNNEMSDPQIEEFYTIVKELEKFDTFTNFLDVHQPELAIVFGRTKRRVDELTSALISKGYKAEGLHGDITQAKRLEVLKKFKNDQINILVATDVAARGLDISGVSHVYNFDIPQDTESYTHRIGRTGRAGKEGIAVTFVNPIEMDYIRQIEDANGRKMSALRPPHRKEVLQAREDDIKEKVENWMSKESESRLKRISTELLNEYNDVDLVAALLQELVEANDEVEVQLTFEKPLSRKGRNGKPSGSR	not soluble
TMNPLYSLKRSEERRNVVLSRMLDEKYISKEEYDAALKEPIVASYHGAKFEFRADYVTEMVRQEMVRRFGEENAYTSGY	not soluble
TPDTLELSLDKPAYRPGETAQLRIVPRAPGKALVTVLSNRVIAMKAVEVGEGETLVDLPVTDEWGTGVYVTATLLRPMDVAAGRNPTRALGLAHAAIDPGEKRLGATIETAAEAAPRGPMEIAVKVEGTAPGETVHATIAAVDVGILNLTGF	not soluble
TPTEGLTIGDKAPTFTICGEKQLIDLKDLRGKYVLLSFWASYDALSRMQNATLNHAVAQADNVEMVSVSFDEYKSIFNETIKKDQISTSNCFVELAGVSSDLYQTYRLKRGFKNFLLDENGVIVAKDVTVSELSS	not soluble
TQSLSNTFDSAIDDQLANVDVVMSGEKAPMPRGLIDELREDKDHVAAVAVQGATSAVLATEDRKAIQTGAASPTIGIFYGEGSAATTPEKITSGKEPHEANEVLAPESAAELGIKEGSTVVVVDEAGQREVKVVGTYSTEATAHPGVNLLMGEKAFLDRYQPEFIGTIFVKKADGSSEDVVQYLKDKYPDFKVDTGASLAEELTKTIKKALSFVNY	not soluble
TRAMEEALFQHFMHQKLGIAYAIHKPFPFFEGLLDNSIITKRMYMESLEACRNLIPVSRVVHNILTQLERTFNLSLLVTLFSQINLREYPNLVTIYRSFKRVGASY	not soluble
TRGAKDTVMIVNAQGGMEPREVTVAQQQGTNWIVTSGLKDGDKVVVEGISIAGITGAKKVTPKEWASSENQAAAPQSGVQTASEAKPASEAK	not soluble
TRGGDSAAAPLDPPKSTATRCLSCNKKVGVTGFKCRCGSTFCGTHRYPESHECQFDFKGVA	soluble
TSALAPVAAIIPPPPDVQPVIDKLAEYVARNGLKFETSVRAKNDQRFEFLQPWHQYNAYYEFKKQFFLQKEGGDSMQAVSAPE	soluble
TSDQRKAEEHIEKEAKYLASLLDAGNLNNQANEKIIKDAGGALDVSASVIDTDGKVLYGSNGRSADSQKVQALVSGHEGILSTTDNKLYYGLSLRSEGEKTGYVLLSASEKSDGLKG	not soluble
TTAYMEYNTTGSVKGLDNVKIRRALNLATNRKGVVQAAVDTGSKPAIAFAPTGLAKTPDGTDLAKYVAPGYEYNKTEAAKLFKEGLAESGLTKLKLTITADADAPAAKNSVDYIKSTWEAALPGLTVEEKFVTFKQRLEDSRKQNFDIVVSLWGGDYPEGSTFYGLFKSDSQNNDGKFANKDYDAAYNKAISEDAMKPAESAKDYKEAEKILFEQGAYNPLYFRSGKGLQNPKLKGVIRNTTGLSIDFTHAYKK	not soluble
TTILKHLPVGQRIGIAFSGGLDTSAALLWMRQKGAVPYAYTANLGQPDEEDYDAIPRRAMEYGAENARLIDCRKQLVAEGIAAIQCGAFHNTTGGLTYFNTTPLGRAVTGTMLVAAMKEDGVNIWGDGSTYKGNDIERFYRYGLLTNAELQIYKPWLDTDFIDELGGRHEMSEFMIACGFDYKMSVEKAYSTDSNMLGATHEAKDLEYLNSSVKIVNPIMGVKFWDESVKIPAEEVTVRFEQGHPVALNGKTFSDDVEMMLEANRIGGRHGLGMSDQIENRIIEAKSRGIYEAPGMALLHIAYERLLTGIHNEDTIEQYHAHGRQLGRLLYQGRWFDSQALMLRDSLQRWVASQITGEVTLELRRGNDYSILNTVSENLTYKPERLTMEKGDSVFSPDDRIGQLTMRNLDITDTREKLFGYAKTGLLSSSAASGVPQVENLENKGQSVEHHHHHH	soluble
TTNLFGFGIDAESRLDLNSKDMTPEKKAKAESETKRLQEFIRYANLDEGTETVFQNIIEDQEKTGNGYIEVLRDGKGQPVELVHCDSQYIRVCKKTEPVEVGYTIMEKGEPVNILRNKRFRKFVQIIDEKKVWFKEYGDPRIMDSTNGNYVEESELESKEFRDATEIIHFKIGTSAYGVPRWIGNVVSLYGARKAEELNLLYFVNGRHVPAAVVVQGGLLDEDAYNNLEEYMKGVSGTENAYQFLVLEVQGEEITNANGDKNLSDVKVEIKSLADMIQKDAMFLEYDATHRKKMRSSFRLPPIYTGEADEYNKATAETARKTTEEQVFQPMRRKLARKINGAFLEALDISEAKLVLKSPDLTDIASISNAIYPFISAASVIPNDLRPMLE	not soluble
TTTLAFRFQGGIIVAVDSRATAGNWVASQTVKRVIEINPFLLGTMAGGAADCQFWETWLGSQCRLHELREKERISVAAASKILSNLVYQYKGAGLSMGTMICGYTRKEGPTIYYVDSDGTRLKGDIFCVGSGQTFAYGVLDSNYKWDLSVEDALYLGKRSILAAAHRDAYSGGSVNLYHVTEDGWIYHGNHDVGELFWKVKEEEGSFNNVIG	soluble
TVPGATTTSSAATETMENVKKCKNFLSTLIKLASSGKQSTETAANVKELVQNLLDGKIEAEDFTSRLYRELNSSPQPYLVPFLKRSLPALRQLTPDSAAFIQQSQQQPPPPTSQ	soluble
VADATTLAVVGPGVMAKTITEACIAERPGITTIKIKGRSERGINAFATWALEKFPEIEVVAVGSEEDVVKDADIVIAATTTDAAGSSAFPYFKKEWLKPGALLLLPAAGRFDDAYLLDDARLVVDYMGLYEAWAEEYGPQAYQLLGIPGTHWYDLALQGKLDLAKISQIGDICSGKLPGRTNDEEIILYSVGG	not soluble
VAKKKRKLKVIPLGGLGEIGKNITVFEYGDDIFVVDCGIAFPEDDMLGIDLVIPDISYLTKNREKVRGIVLTHGHEDHIGALPYVLKDLNVPVYGTKLTLGLLEQKLEEHGLLNNVVLNVVKHSDVIELGCFKVEFIRSTHSIADSTALAIFTPVGTIFHTGDFKIDYTPIEGEPIDLARLAELGKKGVLLLMCDSTNVEREGYTMSEKTVGETFDEIFMNAKNRILVATFASNVHRIQQIVNAAIKFGRKIAICGRSMVNVVNVAMELGYMNVPEGLIIDIDHINKYPPEKIVIITTGSQGEPMSALTRMASGDHKKVEIIPGDLVIISANPIPGNEKLVSRVVNDLFKKGAEVIYESLADIHVSGHASQEELKLIHRLIRPKYFMPVHGEYRHLKRHANLAVELGMSPENIFIMDIGKVLELTNDSAKINGSVNAGRVLVDGLGVGDVGNIVLRDRKHLSQDGLIVVVITIEGDTGNVIAGPDVISRGFVYVRESEDLMEEIREVCKAALQKCNDKKKNDWSTKKSIIRDALRDFLYERTKRRPMILPIIMEV	soluble

Source: the DeepSol protein solubility set
